# In patent US20220162327A1, “ANTI-CCR5 AGENTS AND METHODS OF TREATMENT THAT BLOCK CANCER METASTASIS OR ENHANCE CELL DEATH INDUCED BY DNA DAMAGING CHEMOTHERAPY” (CytoDyn Inc., priority 2019, published 2022):
# “Also recorded” adds a separate entry of the source. Where two headings read alike, the source gives them in different places.
# Legend:
# MDA-MB-231 cells [1] = assay: 3D-matrigel invasion assay, CCL5 as chemoattractant; assay type: cell-based, human
# Text: FIG. 3A, FIG. 3B, FIG. 3C, and FIG. 3D. […] The ability of breast cancer cells to invade extra-cellular matrix is […] an important step in tumor metastasis (Zetter, 1990). To test the ability of PRO140 to block 3D-matrigel invasion assay, MDA-MB-231 cells were used. CCL5 was used as chemoattractant to induce invasion. The small molecule inhibitor of CCR5, vicriviroc, was used as a form of positive control.
# [2] = tested on: MDA-MB-231 cells stable transfected with Luc2-GFP; assay: Mouse lung metastasis model, bioluminescence imaging; assay type: in vivo; settings: mice, tail-vein injection, treated one day before injection
# Description: FIG. 4A and FIG. 4B. Leronlimab block breast cancer metastasis in mice. […] MDA-MB-231 cells stable transfected with Luc2-GFP was injected into the mice through tail-vein. The mice in each group were treated one day before injection. The metastasis tumor formed in the lung was determined by bioluminescence imaging. […] The quantitative analysis of tumor size in each group was shown in (FIG. 4B). The size of tumors defined by photon flux (x10^8 p/sec/cm^2/sr).
# MDA-MB-231 cells [3] = assay: MTT assay, leronlimab combined with doxorubicin; assay type: cell-based, human; settings: 10 mg/ml leronlimab with different dose of doxorubicin, 3 days
# Description: FIG. 5A and FIG. 5B. […] The MTT assay was used to determine the relative cell number (FIG. 5A). The cells treated with maraviroc ([…]) combining with different dose of doxorubicin were used as positive control (FIG. 5B). Data are shown as mean±SEM for N=8.
# [4] = tested on: CCR5+ metastatic Triple Negative Breast Cancer; assay: Phase Ib/II study, tumor imaging; assay type: in vivo, human
# Text: (§1) The primary objective of Phase 1b is to determine the safety, tolerability and maximum tolerate dose (MTD) of PRO 140 in patients with TNBC, when combined with carboplatin to define a recommended Phase II dose of the combination. The primary objective of phase 2b is to evaluate the impact on progression-free survival (PFS) of the combination PRO 140 and carboplatin in patients with CCR5+ TNBC previously treated with anthracyclines and taxanes in neoadjuvant and adjuvant setting.
# The baseline target lesion was identified in the right upper lung at the size of 25 mm. The lesion was described as pleural based, major fissure, soft tissue density nodule in the right hilum.
# (§2) Each treatment cycle consisted of 21 days. […] This treatment regimen was used for all subjects enrolled in the mTNBC study, unless otherwise indicated.
# Scans were taken at the end of every two cycles (every 6 weeks). The subject had Scan 1 after six weeks, a Scan 2 after 12 weeks, and Scan 3 after 18 weeks (Table 4).
# [5] = Phase Ib/II study, safety; assay type: in vivo; settings: Subject 706-001, at Cycle 6 Day 1 visit, weekly leronlimab and carboplatin every three weeks
# Text: as §1, §2
# [6] = tested on: breast cancer tumor model; assay: Breast cancer tumor model; assay type: in vivo
# Text: C-C Chemokine receptor type-5 (CCR5) is selectively reexpressed on the surface of tumor cells during the dedifferentiation and transformation process (velasco-velazquez-2012).
# Another cancer hallmark that CCR5 presents a potential role is the DNA repair pathways. This cancer characteristic attenuates apoptosis and contributes to chemotherapy resistance and tumor cells immortality. Studies have correlated the altered expression of C-C Chemokine Ligand type-5 (CCL5) with disease progression in patients with breast cancer [Luboshits, 1999] [Niwa, 2001] [Zhang, 2009].
# CCR5 [7] = biological target: T1, CCR5 (Homo sapiens, UniProt P51681); settings: CHO-K1 cells, cited from earlier work
# HIV-1 = settings: at concentrations that do not affect CCR5 chemokine receptor activity in vitro; cited from earlier work
# CCR5 [8] = biological target: T1, CCR5; assay: FACS binding of leronlimab to CCR5 in MDA-MB-231-CCR5 cells; parameters: expressed in transfected cells; host or cells: MDA-MB-231 human breast cancer cell line (MDA-MB-231-CCR5)
# Text: A previously tested commercial APC conjugated mouse anti-human/mouse/rat CCR5 antibody from R&D (FAB1802A) (APC-αCCR5) was used as a positive control to assess CCR5 positive cells.
# CCR5 [9] = biological target: T1, CCR5; assay: CCL5 induced calcium responses in MDA-MB-231-CCR5 cells (Fluo-4, living cell image); assay type: cell-based; parameters: expressed in transfected cells; host or cells: MDA-MB-231 human breast cancer cell line (MDA-MB-231-CCR5)
# Text: FIG. 2A, FIG. 2B, FIG. 2C, and FIG. 2D. […] CCR5 activation induces calcium flux (Mueller et al., 2002; Petkovic et al., 2004). […] Fluo-4 was used as calcium concentration indicator. The CCR5 antagonist, vicriviroc, was used as positive control (FIGS. 2A and 2D).
# [10] = Subject 706-001, scan 3, with carboplatin
# [11] = Subject 706-001, with carboplatin
# T1 sequence (P51681 whole entry): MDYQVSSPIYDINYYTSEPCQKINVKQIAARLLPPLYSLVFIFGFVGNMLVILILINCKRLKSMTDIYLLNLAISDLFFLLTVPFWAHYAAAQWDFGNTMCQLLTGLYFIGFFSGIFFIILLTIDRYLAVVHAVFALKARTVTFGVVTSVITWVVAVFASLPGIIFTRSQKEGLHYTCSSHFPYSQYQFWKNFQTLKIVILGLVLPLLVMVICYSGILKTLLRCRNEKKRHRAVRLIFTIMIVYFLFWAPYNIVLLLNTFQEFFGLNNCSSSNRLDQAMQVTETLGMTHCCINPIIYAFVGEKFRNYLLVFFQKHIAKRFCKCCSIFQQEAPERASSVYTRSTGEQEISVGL
molecule,measurement,setting,value
"leronlimab: humanized monoclonal antibody to CCR5; humanized version of the murine mAb PA14 (antibody, chains of the INN, looked up, V domains shown) VH: EVQLVESGGGLVKPGGSLRLSCAASGYTFSNYWIGWVRQAPGKGLEWIGDIYPGGNYIRNNEKFKDKTTLSADTSKNTAYLQMNSLKTEDTAVYYCGSSFGSNYVFAWFTYWGQGTLVTVSS VL: DIVMTQSPLSLPVTPGEPASISCRSSQRLLSSYGHTYLHWYLQKPGQSPQLLIYEVSNRFSGVPDRFSGSGSGTDFTLKISRVEAEDVGVYYCSQSTHVPLTFGQGTKVEIK",effect on MDA-MB-231 cell invasion,MDA-MB-231 cells [1]; 175 µg/ml,can effectively block MDA-MB-231 cell invasion
same,effect on MDA-MB-231 cell invasion,MDA-MB-231 cells [1]; 350 µg/ml,can effectively block MDA-MB-231 cell invasion
same,effect on CCL5-induced cell invasion,MDA-MB-231 cells [1]; vicriviroc as positive control,reduced CCL5-induced MDA-MB-231 breast cancer cell invasion with similar efficacy as vicriviroc; also recorded: blocked 3D matrigel invasion
same,breast cancer tumor metastasis to the lung,[2],blocks human breast cancer xenograft metastasis in mice; also recorded: dramatically decreased breast cancer tumor metastasis to the lung
same,cell death induced by doxorubicin,MDA-MB-231 cells [3],augmented cell killing by DNA damage inducing agents including Doxorubicin; also recorded: enhances the cell death induced by doxorubicin
same,decrease in size of target lesion,[4]; [10],20%
same,new lung nodules,[4]; [10],no new lung nodules found
same,decrease in size of target lesion (as measured by tumor volume),[4]; [11],greater than 20%
same,"new lymphadenopathy or metastatic disease on diagnostic CT chest, abdomen and pelvis",[4]; [11],No new lymphadenopathy or metastatic disease reported
same,right hilar lymph node,[4]; [11],resolved
same,maximum standardized uptake values (SUVs) of right lung metastasis,"[4]; Subject 706-001, with carboplatin, previously 15.3",6.8
same,serious adverse events,[5],no serious adverse events had been reported
same,tumor volume,[6],significant reduction in tumor volume
same,effect on chemotaxis,CCR5 [7]; administered with CCL5,reduces CCL5-induced chemotaxis
same,effect on chemotaxis,CCR5 [7]; alone,does not affect chemotaxis of CHO-K1 cells
same,inhibition of HIV-1 entry and replication,HIV-1,potently inhibits HIV-1 entry and replication
same,efficiency of binding to CCR5 positive cells,CCR5 [8],98%
same,efficiency of binding to CCR5 positive cells,CCR5 [8]; listed as PRO140,up to 98%
same,effect on CCL5 induced calcium responses,CCR5 [9],can block CCL5 induced calcium responses
same,calcium response at calcium peak induce by CCL5,"CCR5 [9]; Fluo-4, control cells 1.23±0.10, P<0.001",0.54±0.13
same,effect on CCL5 induced calcium responses,CCR5 [9]; listed as Leronlimab,abrogated CCL5 induced Ca^+2 flux
